# Reference: IntAct's records for PubMed 22252131
# B1: E3 ubiquitin-protein ligase Hakai (Mus musculus), Q9JIY2 (parent)
# chain: MDHTDNELQGTNSSGSLGGLDVRRRIPIKLISKQASKVKPAPRTQRTVSRMPAKAPQGDEEGFDYNEEQRYDCKGGELFGNQRRFPGHLFWDFKINILGEKDDTPVHFCDKCGLPIKVYGRMIPCKHVFCYDCAILHEKKGDKMCPGCSDPVQRIEQCTRGSLFMCSIVQGCKRTYLSQRDLQAHINHRHMRAGKPVTRASLENVHPPIAPPPTDIPDRFIMPPDKHHMSHIPPKQHIMMPPPPLQHVPHEHYNQPHEDIRAPPAELSMAPPPPRSVSQETFRISTRKHSNLITVPIQDDSSSGAREPPPPAPAPAHHHPEYQGQPVVSHPHHIMPPQQHYAPPPPPPPPISHPMPHPPQAAGTPHLVYSQAPPPPMTSAPPPITPPPGHIIAQMPPYMNHPPPGPPPPQHGGPPVTAPPPHHYNPNSLPQFTEDQGTLSPPFTQPGGMSPGIWPAPRGPPPPPRMQGPPSQTPLPGPHHPDQTRYRPYYQ
# Variants of: B1
# Conditions: with cadh1_human CDH1, P12830
row,effect of a mutation on the interaction,Variant
1,disrupting interaction,MDHTDNELQGTNSSGSLGGLDVRRRIPIKLISKQASKVKPAPRTQRTVSRMPAKAPQGDEEGFDYNEEQRYDCKGGELFGNQRRFPGHLFWDFKINILGEKDDTPVHFCDKCGLPIKVYGRMIPCKHVFCYDCAILHEKKGDKMCPGCSDPVQRIEQCTRGSLFMASIVQGCKRTYLSQRDLQAHINHRHMRAGKPVTRASLENVHPPIAPPPTDIPDRFIMPPDKHHMSHIPPKQHIMMPPPPLQHVPHEHYNQPHEDIRAPPAELSMAPPPPRSVSQETFRISTRKHSNLITVPIQDDSSSGAREPPPPAPAPAHHHPEYQGQPVVSHPHHIMPPQQHYAPPPPPPPPISHPMPHPPQAAGTPHLVYSQAPPPPMTSAPPPITPPPGHIIAQMPPYMNHPPPGPPPPQHGGPPVTAPPPHHYNPNSLPQFTEDQGTLSPPFTQPGGMSPGIWPAPRGPPPPPRMQGPPSQTPLPGPHHPDQTRYRPYYQ [C166A]

# Variants of: B1
# Conditions: with src8_human CTTN
row,effect of a mutation on the interaction,Variant
1,disrupting interaction,MDHTDNELQGTNSSGSLGGLDVRRRIPIKLISKQASKVKPAPRTQRTVSRMPAKAPQGDEEGFDYNEEQRYDCKGGELFGNQRRFPGHLFWDFKINILGEKDDTPVHFCDKCGLPIKVYGRMIPCKHVFCYDCAILHEKKGDKMCPGCSDPVQRIEQCTRGSLFMASIVQGCKRTYLSQRDLQAHINHRHMRAGKPVTRASLENVHPPIAPPPTDIPDRFIMPPDKHHMSHIPPKQHIMMPPPPLQHVPHEHYNQPHEDIRAPPAELSMAPPPPRSVSQETFRISTRKHSNLITVPIQDDSSSGAREPPPPAPAPAHHHPEYQGQPVVSHPHHIMPPQQHYAPPPPPPPPISHPMPHPPQAAGTPHLVYSQAPPPPMTSAPPPITPPPGHIIAQMPPYMNHPPPGPPPPQHGGPPVTAPPPHHYNPNSLPQFTEDQGTLSPPFTQPGGMSPGIWPAPRGPPPPPRMQGPPSQTPLPGPHHPDQTRYRPYYQ [C166A]

# Variants of: B1
# Conditions: with cadh1_human CDH1, P12830
# Remark: another data set of the same source
row,effect of a mutation on the interaction,Variant
1,disrupting interaction,MDHTDNELQGTNSSGSLGGLDVRRRIPIKLISKQASKVKPAPRTQRTVSRMPAKAPQGDEEGFDYNEEQRYDCKGGELFGNQRRFPGHLFWDFKINILGEKDDTPVHFCDKCGLPIKVYGRMIPCKHVFCYDCAILHEKKGDKMCPGCSDPVQRIEQCTRGSLFMCSIVQGCKRTYLSQRDLQAAINHRHMRAGKPVTRASLENVHPPIAPPPTDIPDRFIMPPDKHHMSHIPPKQHIMMPPPPLQHVPHEHYNQPHEDIRAPPAELSMAPPPPRSVSQETFRISTRKHSNLITVPIQDDSSSGAREPPPPAPAPAHHHPEYQGQPVVSHPHHIMPPQQHYAPPPPPPPPISHPMPHPPQAAGTPHLVYSQAPPPPMTSAPPPITPPPGHIIAQMPPYMNHPPPGPPPPQHGGPPVTAPPPHHYNPNSLPQFTEDQGTLSPPFTQPGGMSPGIWPAPRGPPPPPRMQGPPSQTPLPGPHHPDQTRYRPYYQ [H185A]

# Variants of: B1
# Conditions: with src8_human CTTN
# Remark: another data set of the same source
row,effect of a mutation on the interaction,Variant
1,disrupting interaction,MDHTDNELQGTNSSGSLGGLDVRRRIPIKLISKQASKVKPAPRTQRTVSRMPAKAPQGDEEGFDYNEEQRYDCKGGELFGNQRRFPGHLFWDFKINILGEKDDTPVHFCDKCGLPIKVYGRMIPCKHVFCYDCAILHEKKGDKMCPGCSDPVQRIEQCTRGSLFMCSIVQGCKRTYLSQRDLQAAINHRHMRAGKPVTRASLENVHPPIAPPPTDIPDRFIMPPDKHHMSHIPPKQHIMMPPPPLQHVPHEHYNQPHEDIRAPPAELSMAPPPPRSVSQETFRISTRKHSNLITVPIQDDSSSGAREPPPPAPAPAHHHPEYQGQPVVSHPHHIMPPQQHYAPPPPPPPPISHPMPHPPQAAGTPHLVYSQAPPPPMTSAPPPITPPPGHIIAQMPPYMNHPPPGPPPPQHGGPPVTAPPPHHYNPNSLPQFTEDQGTLSPPFTQPGGMSPGIWPAPRGPPPPPRMQGPPSQTPLPGPHHPDQTRYRPYYQ [H185A]

# Variants of: B1
# Conditions: with cadh1_human CDH1, P12830
# Remark: another data set of the same source
row,effect of a mutation on the interaction,Variant
1,disrupting interaction,MDHTDNELQGTNSSGSLGGLDVRRRIPIKLISKQASKVKPAPRTQRTVSRMPAKAPQGDEEGFDYNEEQRYDCKGGELFGNQRRFPGHLFWDFKINILGEKDDTPVHFCDKCGLPIKVYGRMIPCKHVFCYDCAILHEKKGDKMCPGCSDPVQRIEQCTRGSLFMCSIVQGAKRTYLSQRDLQAHINHRHMRAGKPVTRASLENVHPPIAPPPTDIPDRFIMPPDKHHMSHIPPKQHIMMPPPPLQHVPHEHYNQPHEDIRAPPAELSMAPPPPRSVSQETFRISTRKHSNLITVPIQDDSSSGAREPPPPAPAPAHHHPEYQGQPVVSHPHHIMPPQQHYAPPPPPPPPISHPMPHPPQAAGTPHLVYSQAPPPPMTSAPPPITPPPGHIIAQMPPYMNHPPPGPPPPQHGGPPVTAPPPHHYNPNSLPQFTEDQGTLSPPFTQPGGMSPGIWPAPRGPPPPPRMQGPPSQTPLPGPHHPDQTRYRPYYQ [C172A]

# Variants of: B1
# Conditions: with src8_human CTTN
# Remark: another data set of the same source
row,effect of a mutation on the interaction,Variant
1,disrupting interaction,MDHTDNELQGTNSSGSLGGLDVRRRIPIKLISKQASKVKPAPRTQRTVSRMPAKAPQGDEEGFDYNEEQRYDCKGGELFGNQRRFPGHLFWDFKINILGEKDDTPVHFCDKCGLPIKVYGRMIPCKHVFCYDCAILHEKKGDKMCPGCSDPVQRIEQCTRGSLFMCSIVQGAKRTYLSQRDLQAHINHRHMRAGKPVTRASLENVHPPIAPPPTDIPDRFIMPPDKHHMSHIPPKQHIMMPPPPLQHVPHEHYNQPHEDIRAPPAELSMAPPPPRSVSQETFRISTRKHSNLITVPIQDDSSSGAREPPPPAPAPAHHHPEYQGQPVVSHPHHIMPPQQHYAPPPPPPPPISHPMPHPPQAAGTPHLVYSQAPPPPMTSAPPPITPPPGHIIAQMPPYMNHPPPGPPPPQHGGPPVTAPPPHHYNPNSLPQFTEDQGTLSPPFTQPGGMSPGIWPAPRGPPPPPRMQGPPSQTPLPGPHHPDQTRYRPYYQ [C172A]
